Assay results taken from patent US20030171559A1 (Amgen, published 2003).

T1: G-CSF receptor (natural G-CSF receptor, found on hematopoietic cells) (mouse (bone marrow cells of Balb C …, UniProt P40223 26-837))
T1 sequence (looked up): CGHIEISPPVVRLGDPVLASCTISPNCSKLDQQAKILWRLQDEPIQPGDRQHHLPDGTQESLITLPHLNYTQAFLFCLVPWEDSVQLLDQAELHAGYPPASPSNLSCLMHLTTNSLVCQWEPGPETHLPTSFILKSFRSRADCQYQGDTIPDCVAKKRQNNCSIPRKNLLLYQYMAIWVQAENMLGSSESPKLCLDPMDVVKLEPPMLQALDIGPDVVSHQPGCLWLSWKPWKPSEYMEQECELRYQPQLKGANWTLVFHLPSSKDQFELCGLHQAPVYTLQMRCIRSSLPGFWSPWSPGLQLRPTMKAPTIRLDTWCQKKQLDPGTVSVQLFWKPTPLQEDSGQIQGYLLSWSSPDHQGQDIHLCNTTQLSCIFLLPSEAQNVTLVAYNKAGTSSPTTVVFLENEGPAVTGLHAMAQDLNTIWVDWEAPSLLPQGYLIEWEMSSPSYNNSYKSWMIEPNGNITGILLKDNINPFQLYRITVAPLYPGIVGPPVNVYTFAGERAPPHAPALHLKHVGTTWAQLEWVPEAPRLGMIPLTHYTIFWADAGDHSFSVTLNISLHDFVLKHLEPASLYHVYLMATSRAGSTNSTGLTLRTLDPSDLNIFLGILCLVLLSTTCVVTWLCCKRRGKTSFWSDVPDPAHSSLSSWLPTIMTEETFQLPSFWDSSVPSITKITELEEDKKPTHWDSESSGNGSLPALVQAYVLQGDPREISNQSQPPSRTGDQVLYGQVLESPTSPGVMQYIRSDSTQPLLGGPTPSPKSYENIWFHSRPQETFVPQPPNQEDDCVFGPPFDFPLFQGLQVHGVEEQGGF

B1: G-CSF analog Gln26->Ala26 (ligand)
chain: MTPLGPASSLPQSFLLKCLEQVRKIAGDGAALQEKLCATYKLCHPEELVLLGHSLGIPWAPLSSCPSQALQLAGCLSQLHSGLFLYQGLLQALEGISPELGPTLDTLQLDVADFATTIWQQMEELGMAPALQPTQGAMPAFASAFQRRAGGVLVASHLQSFLEVSYRVLRHLAQP
B2: G-CSF analog Lys41->Ala41 (ligand)
chain: MTPLGPASSLPQSFLLKCLEQVRKIQGDGAALQEKLCATYALCHPEELVLLGHSLGIPWAPLSSCPSQALQLAGCLSQLHSGLFLYQGLLQALEGISPELGPTLDTLQLDVADFATTIWQQMEELGMAPALQPTQGAMPAFASAFQRRAGGVLVASHLQSFLEVSYRVLRHLAQP
B3: G-CSF analog Asp110->Ala110 (ligand)
chain: MTPLGPASSLPQSFLLKCLEQVRKIQGDGAALQEKLCATYKLCHPEELVLLGHSLGIPWAPLSSCPSQALQLAGCLSQLHSGLFLYQGLLQALEGISPELGPTLDTLQLAVADFATTIWQQMEELGMAPALQPTQGAMPAFASAFQRRAGGVLVASHLQSFLEVSYRVLRHLAQP
B4: G-CSF analog His44->Ala44 (ligand)
chain: MTPLGPASSLPQSFLLKCLEQVRKIQGDGAALQEKLCATYKLCAPEELVLLGHSLGIPWAPLSSCPSQALQLAGCLSQLHSGLFLYQGLLQALEGISPELGPTLDTLQLDVADFATTIWQQMEELGMAPALQPTQGAMPAFASAFQRRAGGVLVASHLQSFLEVSYRVLRHLAQP
B5: G-CSF analog Gln174->Ala174 (ligand)
chain: MTPLGPASSLPQSFLLKCLEQVRKIQGDGAALQEKLCATYKLCHPEELVLLGHSLGIPWAPLSSCPSQALQLAGCLSQLHSGLFLYQGLLQALEGISPELGPTLDTLQLDVADFATTIWQQMEELGMAPALQPTQGAMPAFASAFQRRAGGVLVASHLQSFLEVSYRVLRHLAAP
B6: G-CSF analog Met127,138->Leu127,138 (ligand)
chain: MTPLGPASSLPQSFLLKCLEQVRKIQGDGAALQEKLCATYKLCHPEELVLLGHSLGIPWAPLSSCPSQALQLAGCLSQLHSGLFLYQGLLQALEGISPELGPTLDTLQLDVADFATTIWQQMEELGLAPALQPTQGALPAFASAFQRRAGGVLVASHLQSFLEVSYRVLRHLAQP
B7: G-CSF analog His44->Lys44 (ligand)
chain: MTPLGPASSLPQSFLLKCLEQVRKIQGDGAALQEKLCATYKLCKPEELVLLGHSLGIPWAPLSSCPSQALQLAGCLSQLHSGLFLYQGLLQALEGISPELGPTLDTLQLDVADFATTIWQQMEELGMAPALQPTQGAMPAFASAFQRRAGGVLVASHLQSFLEVSYRVLRHLAQP
B8: G-CSF analog Lys17->Ala17 (ligand)
chain: MTPLGPASSLPQSFLLACLEQVRKIQGDGAALQEKLCATYKLCHPEELVLLGHSLGIPWAPLSSCPSQALQLAGCLSQLHSGLFLYQGLLQALEGISPELGPTLDTLQLDVADFATTIWQQMEELGMAPALQPTQGAMPAFASAFQRRAGGVLVASHLQSFLEVSYRVLRHLAQP
B9: G-CSF analog Arg167->Ala167 (ligand)
chain: MTPLGPASSLPQSFLLKCLEQVRKIQGDGAALQEKLCATYKLCHPEELVLLGHSLGIPWAPLSSCPSQALQLAGCLSQLHSGLFLYQGLLQALEGISPELGPTLDTLQLDVADFATTIWQQMEELGMAPALQPTQGAMPAFASAFQRRAGGVLVASHLQSFLEVSYAVLRHLAQP
B10: G-CSF analog His53->Ala53 (ligand)
chain: MTPLGPASSLPQSFLLKCLEQVRKIQGDGAALQEKLCATYKLCHPEELVLLGASLGIPWAPLSSCPSQALQLAGCLSQLHSGLFLYQGLLQALEGISPELGPTLDTLQLDVADFATTIWQQMEELGMAPALQPTQGAMPAFASAFQRRAGGVLVASHLQSFLEVSYRVLRHLAQP
B11: G-CSF analog Gln121->Ala121 (ligand)
chain: MTPLGPASSLPQSFLLKCLEQVRKIQGDGAALQEKLCATYKLCHPEELVLLGHSLGIPWAPLSSCPSQALQLAGCLSQLHSGLFLYQGLLQALEGISPELGPTLDTLQLDVADFATTIWQAMEELGMAPALQPTQGAMPAFASAFQRRAGGVLVASHLQSFLEVSYRVLRHLAQP
B12: G-CSF analog Arg170->Ala170 (ligand)
chain: MTPLGPASSLPQSFLLKCLEQVRKIQGDGAALQEKLCATYKLCHPEELVLLGHSLGIPWAPLSSCPSQALQLAGCLSQLHSGLFLYQGLLQALEGISPELGPTLDTLQLDVADFATTIWQQMEELGMAPALQPTQGAMPAFASAFQRRAGGVLVASHLQSFLEVSYRVLAHLAQP
B13: G-CSF analog Glu20->Ala20; Ser13->Gly13 (ligand)
chain: MTPLGPASSLPQGFLLKCLAQVRKIQGDGAALQEKLCATYKLCHPEELVLLGHSLGIPWAPLSSCPSQALQLAGCLSQLHSGLFLYQGLLQALEGISPELGPTLDTLQLDVADFATTIWQQMEELGMAPALQPTQGAMPAFASAFQRRAGGVLVASHLQSFLEVSYRVLRHLAQP
B14: G-CSF analog Asp113->Ala113 (ligand)
chain: MTPLGPASSLPQSFLLKCLEQVRKIQGDGAALQEKLCATYKLCHPEELVLLGHSLGIPWAPLSSCPSQALQLAGCLSQLHSGLFLYQGLLQALEGISPELGPTLDTLQLDVAAFATTIWQQMEELGMAPALQPTQGAMPAFASAFQRRAGGVLVASHLQSFLEVSYRVLRHLAQP
B15: G-CSF analog Phe114->Val114, Thr117->Ala117 (ligand)
chain: MTPLGPASSLPQSFLLKCLEQVRKIQGDGAALQEKLCATYKLCHPEELVLLGHSLGIPWAPLSSCPSQALQLAGCLSQLHSGLFLYQGLLQALEGISPELGPTLDTLQLDVADVATAIWQQMEELGMAPALQPTQGAMPAFASAFQRRAGGVLVASHLQSFLEVSYRVLRHLAQP
B16: G-CSF analog Asp28->Ala28; Asp110->Ala110 (ligand)
chain: MTPLGPASSLPQSFLLKCLEQVRKIQGAGAALQEKLCATYKLCHPEELVLLGHSLGIPWAPLSSCPSQALQLAGCLSQLHSGLFLYQGLLQALEGISPELGPTLDTLQLAVADFATTIWQQMEELGMAPALQPTQGAMPAFASAFQRRAGGVLVASHLQSFLEVSYRVLRHLAQP
B17: G-CSF analog Asp28->Ala28 (ligand)
chain: MTPLGPASSLPQSFLLKCLEQVRKIQGAGAALQEKLCATYKLCHPEELVLLGHSLGIPWAPLSSCPSQALQLAGCLSQLHSGLFLYQGLLQALEGISPELGPTLDTLQLDVADFATTIWQQMEELGMAPALQPTQGAMPAFASAFQRRAGGVLVASHLQSFLEVSYRVLRHLAQP
B18: G-CSF analog Gln21->Ala21 (ligand)
chain: MTPLGPASSLPQSFLLKCLEAVRKIQGDGAALQEKLCATYKLCHPEELVLLGHSLGIPWAPLSSCPSQALQLAGCLSQLHSGLFLYQGLLQALEGISPELGPTLDTLQLDVADFATTIWQQMEELGMAPALQPTQGAMPAFASAFQRRAGGVLVASHLQSFLEVSYRVLRHLAQP
B19: G-CSF analog Glu124->Ala124 (ligand)
chain: MTPLGPASSLPQSFLLKCLEQVRKIQGDGAALQEKLCATYKLCHPEELVLLGHSLGIPWAPLSSCPSQALQLAGCLSQLHSGLFLYQGLLQALEGISPELGPTLDTLQLDVADFATTIWQQMEALGMAPALQPTQGAMPAFASAFQRRAGGVLVASHLQSFLEVSYRVLRHLAQP
B20: G-CSF analog Glu20->Ala20 (ligand)
chain: MTPLGPASSLPQSFLLKCLAQVRKIQGDGAALQEKLCATYKLCHPEELVLLGHSLGIPWAPLSSCPSQALQLAGCLSQLHSGLFLYQGLLQALEGISPELGPTLDTLQLDVADFATTIWQQMEELGMAPALQPTQGAMPAFASAFQRRAGGVLVASHLQSFLEVSYRVLRHLAQP
B21: G-CSF analog Ser13->Ala13 (ligand)
chain: MTPLGPASSLPQAFLLKCLEQVRKIQGDGAALQEKLCATYKLCHPEELVLLGHSLGIPWAPLSSCPSQALQLAGCLSQLHSGLFLYQGLLQALEGISPELGPTLDTLQLDVADFATTIWQQMEELGMAPALQPTQGAMPAFASAFQRRAGGVLVASHLQSFLEVSYRVLRHLAQP
B22: G-CSF analog Thr117->Ala117 (ligand)
chain: MTPLGPASSLPQSFLLKCLEQVRKIQGDGAALQEKLCATYKLCHPEELVLLGHSLGIPWAPLSSCPSQALQLAGCLSQLHSGLFLYQGLLQALEGISPELGPTLDTLQLDVADFATAIWQQMEELGMAPALQPTQGAMPAFASAFQRRAGGVLVASHLQSFLEVSYRVLRHLAQP

Each binder was assayed against T1, G-CSF receptor (natural G-CSF receptor, …) (assay: cell-based or functional assay).
In the case of B1, the “% Normal G-CSF Activity (3H-thymidine uptake, mouse bone marrow cells)” value (shortened to “% Normal G-CSF Activity”) is reported as 51%.
With B2 the “% Normal G-CSF Activity” value was 81%.
For B3, the “% Normal G-CSF Activity” value was 29%.
B4 was tested, and the “% Normal G-CSF Activity” value was 10.8%.
With B5 the “% Normal G-CSF Activity” value was 100%.
B6 was tested, and the “% Normal G-CSF Activity” value was 98%.
With B7 the “% Normal G-CSF Activity” value was 70%.
In the case of B8, the “% Normal G-CSF Activity” value is reported as 70%.
In the case of B9, the “% Normal G-CSF Activity” value is reported as 110%.
In the case of B10, the “% Normal G-CSF Activity” value is reported as 8.3%.
For B11, the “% Normal G-CSF Activity” value was 100%.
In the case of B12, the “% Normal G-CSF Activity” value is reported as 100%.
With B13 the “% Normal G-CSF Activity” value was 0%.
With B14 the “% Normal G-CSF Activity” value was 0%.
B15 was tested, and the “% Normal G-CSF Activity” value was 0%.
B16 was tested, and the “% Normal G-CSF Activity” value was 20.6%.
For B17, the “% Normal G-CSF Activity” value was 147%.
With B18 the “% Normal G-CSF Activity” value was 9.6%.
B19 was tested, and the “% Normal G-CSF Activity” value was 75%.
For B20, the “% Normal G-CSF Activity” value was 0%.
With B21 the “% Normal G-CSF Activity” value was 110%.
In the case of B22, the “% Normal G-CSF Activity” value is reported as 9.7%.
